Results as given in article PMC4010280.

How the values were obtained:
[1] = substrate: C[C@H](O)[C@@H](O)[C@@H](O)[C@H](O)C(=O)O; experiment: coupled enzyme dehydration assay; format: biochemical, Homo sapiens
[2] = substrate: O=C(O)[C@@H](O)[C@H](O)[C@H](O)CO; experiment: purified protein
[3] = substrate: O=C(O)[C@@H](O)[C@H](O)[C@H](O)[C@@H](O)CO; experiment: purified protein
[4] = substrate: O=C(O)[C@H](O)C(O)[C@@H](O)C(=O)O; experiment: purified protein
[5] = substrate: O=C(O)[C@H](O)[C@H](O)[C@H](O)CO; experiment: purified protein

B1: rTSγ (HsrTSγ) (Homo sapiens) (protein)
chain: MVRGRISRLSVRDVRFPTSLGGHGADAMHTDPDYSAAYVVIETDAEDGIKGCGITFTLGKGTEVVVCAVNALAHHVLNKDLKDIVGDFRGFYRQLTSDGQLRWIGPEKGVVHLATAAVLNAVWDLWAKQEGKPVWKLLVDMDPRMLVSCIDFRYITDVLTEEDALEILQKGQIGKKEREKQMLAQGYPAYTTSCAWLGYSDDTLKQLCAQALKDGWTRFKVKVGADLQDDMRRCQIIRDMIGPEKTLMMDANQRWDVPEAVEWMSKLAKFKPLWIEEPTSPDDILGHATISKALVPLGIGIATGEQCHNRVIFKQLLQAKALQFLQIDSCRLGSVNENLSVLLMAKKFEIPVCPHAGGVGLCELVQHLIIFDYISVSASLENRVCEYVDHLHEHFKYPVMIQRASYMPPKDPGYSTEMKEESVKKHQYPDGEVWKKLLPA
kcat [1]: 0.5 ± 0.006 s⁻¹
kcat/Km [1]: 2500 M⁻¹ s⁻¹
kcat [2]: 0.04 ± 0.002 s⁻¹
kcat/Km [2]: 20 M⁻¹ s⁻¹
kcat [3]: 0.3 ± 0.01 s⁻¹
kcat/Km [3]: 100 M⁻¹ s⁻¹
kcat [4]: 0.3 ± 0.004 s⁻¹
kcat/Km [4]: 75 M⁻¹ s⁻¹
kcat [5]: 0.002 ± 0.001 s⁻¹
kcat/Km [5]: 5 M⁻¹ s⁻¹
